Biological target: T1, mouse PD-L1 on the surface of DC 2.4 dendritic cells (mouse, UniProt Q9EP73 19-290)
T1 construct: whole, on cells; also called Programmed Death-Ligand 1
Assay: flow cytometry on DC 2.4 cells, purified Nb detected with fluorophore-conjugated anti-FLAG antibody
Method: While the majority of anti-PD-L1 and anti-CTLA-4 Nbs are currently produced intracellularly in E. coli, the lengthy processes of lysing bacteria and removing endotoxins may dramatically increase costs and demand a centralized facility for production. […] Of note, in the shake-flask expression system, anti-PD-L1 and anti-CTLA-4 Nbs can be secreted into the supernatant of B. subtilis culture at ˜15 mg per liter of culture. To further confirm that these Nbs remain functional following secretion and purification, the mouse dendritic cell line DC 2.4 was chosen because it is known to constitutively express the immunoinhibitory receptor PD-L1 on the cell surface (FIG. 5, Panel A), and it was also validated the expression of PD-L1 by a commercial antibody specific for mouse PD-L1. […] The stained samples were analyzed by flow cytometry and fluorescence microscopy—results of flow cytometry indicated the specific binding of purified anti-PD-L1 Nbs and no binding for the anti-caffeine Nb control in comparison to the unstained sample (FIG. 5, Panel B). […] To further test whether the purification step could be bypassed by directly using bacterial supernatant, 200 μl of the original B. subtilis supernatant containing the anti-PD-L1 Nb was applied to stain ˜one million DC 2.4 cells for fluorescence microscopy.

T1 sequence (Q9EP73 19-290): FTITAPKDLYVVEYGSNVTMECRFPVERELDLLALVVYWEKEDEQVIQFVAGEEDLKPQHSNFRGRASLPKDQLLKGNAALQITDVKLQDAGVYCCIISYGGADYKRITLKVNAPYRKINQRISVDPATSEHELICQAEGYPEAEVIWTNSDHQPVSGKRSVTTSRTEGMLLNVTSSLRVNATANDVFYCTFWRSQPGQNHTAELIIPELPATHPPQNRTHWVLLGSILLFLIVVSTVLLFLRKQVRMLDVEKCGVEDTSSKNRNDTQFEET

B1: anti-caffeine nanobody secreted from B. subtilis (CBD fusion, with FLAG epitope) (VHH, not shown: large carriers)
VHH: QVQLVESGGGLVQAGGSLRLSCTASGRTGTIYSMAWFRQAPGKEREFLATVGWSSGITYYMDSVKGRFTISRDKGKNTVYLQMDSLKPEDTAVYYCTATRAYSVGYDYWGQGTQVTVSS
notes: Negative control in the PD-L1 staining; also called anti-caffeine Nb; CBD-anti-caffeine Nb
Does B1 bind?
Result: no binding
